In the nanobody polyreactivity screen of Harvey et al. (2022):

Test: yeast display, Sf9 membrane polyspecificity reagent, FACS + sequencing; frameworks hold sequencing errors
In short: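 A nanobody's polyreactivity label depends on the gate it was sorted from. Yeast display cells were stained with 10% biotinylated, detergent-solubilized Sf9 membrane reagent for 1 hour at 4 °C, enriched on streptavidin microbeads and sorted by FACS. The low and high (top ~1%) gates were set on anti-HA fluorescence for expression and streptavidin fluorescence for reagent binding.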

Sequence | polyreactivity (PSR sort gate)
QVQLVESGGGLVQAGGSLRLSCAASGSIFDAYAMGWYRQSPGKERELVAAITTGGGSTYYADSVKGRFTISRDNAKNTVYLQMNSLKPEDTAVYYCAPDYGKYKGYYWGQGTQVTVSS | low polyreactivity
QVQLVESGGGLVQAGGSLRLSCAASGITLYANAMGWYREAPGKERELVAVISKGSGSTYYPDSVKGRFTISRDNAKNTVYLQMNSLKPEDTAVYYCAAGRKGSMYYWGQGTQVTVSS | high polyreactivity
QVQLVESGGGLVQAGGSLRLSCAASGLNFYRNAMGWSRQAPGKERELVAAISASGGRTYYADSVKGRFTISRDNAKNTVYLPMNSLKPEDTAVYYCAAKSLWLSMDYWGQGTQVTVSS | high polyreactivity
QVQLVESGGGLVQAGGSLRLSCAASGGIFGLYTMGWYRQAPGKERELVAAISKTGGSTYYADSVKGRFTISRDNAKNTVYLQMNSLKPEDTAVYYCAKAGRYANLPYGYWGQGTQVTVSS | high polyreactivity
QVQLVESGGGLVQAGGSLRLRCAASARTFRDYAMGCYRQATGKERELVAVIDSGGGTDYADSVKGRFTISRDNAKNTVYLQMNSLKPEDTAVYYCAADSSVRYRDTEDYWGQGTQVTVSS | low polyreactivity
QVQLVESGGGLVQAGGSLRLSCDASGFIFVRYAMGWYRQAPGKEREFVAAISRSGGSTYYADSVKGRFTISRDNAKNTVYLQMNSLKPEDTAVYYCARQYASPRREFEYWGQGTQVTVSS | high polyreactivity
QVQLVDSCGGLVQAGGSLRLSCAASGSISYYYAMGWYRQAPGKERELVAAITRTGTTNYADSVKWRFTISRDNAKNTVFLQMNSLKPEDTAVYYCAKRSTGRLQSYNYWGQGTQVTVSS | low polyreactivity
QVQLEESGGGLVQAGGSLRLSCAASGRIGAYAMGWYRQAPGKERELVAGITSNGASTYYADSVKGRFTISRDNAKNTVYLQMNSLKPEDTAVYYCAARYRFQRGGYYYWGQGTQVTVSS | high polyreactivity
QVQLVESGGGLVQAGGSLRLSCAASGIILPRYAMGWYRQAPGKERELVAAISRGGGTYYADSVKGRFTISRDNAKNTVYLQMNSLIPEDTAVYYCAAAYVFVGSSHYYWGQGTQVTVSS | high polyreactivity
QVQLVESGGGKVQAGGSLRLSCAASGRTFWVYAMGWYRPAPGKERELVASISWSVGSTYYADSVKGRFTISRDNAKNTVYLQMNSLKPEDTAVYYCAADPSPYGDEYDYWGQGTQVTVSS | low polyreactivity
QVQLVESGGGLVQAGGSLRLSCAASGSTFPYYAMGWYRLAPGKERELVAAISFRGTRTYYADSVKGRFTISRDNAKNTVYLQMNSLKPEDTAVYYCAADASTYYGTQWASYYYWGQGTQVTVSS | high polyreactivity
QVQLVESGGRLVQAGGSIRLSCAASGGIFTAYAMGCYRQAPGKEREFVAGIDRSGGRTYYADSVKGRFTISRDNAKNNVYLQMNSLKPEDTAVYYCYARGYVYQNQLYYYWGQGSQVTVSS | high polyreactivity
QVQLVESGGGLVQAGGSLRLSCAAYGSIFVLNAMGWYRQAPGKERQLVAAITNVGSTYYADSVKGRFTISRDNAKNTVYLQMNSLKPEDTAVYYCNADPGEVLVGYDYWGQGTQVSVSS | low polyreactivity
QVQRLESAGGLVQAGGSLRLSCAASGFIFSYYAMGWYRQAPGKERELVAAIDGSGGSTYYADSVKGRFTISRDNAKNTVYLQKNSLKPEDTAVYYCNTLIYIQGLGYDYGGQGTQVTVSS | high polyreactivity
QVQLVESGGGLVQAGGSLRLSCAASGSTFSGYAMGWYRQAPGKERELVAAITSGGITNYADSVKGRFTISLDNAKNTLYLQMNSLKPEDTAVYYCAKSVSGIGVGYDYWGQGTQVTVSS | low polyreactivity
QVQHVESVGGLVQAGGSLRLSCAASASIIYANTMGWYRQAPGKEREFVATITDSGAIKYYADSVKGRFTISRDNAKNTVYLQMNSLKPEDTAVYYCNADSIYSARGWLYGYWGQGTQVTVSS | low polyreactivity
QVQLVESGGGLVQAGGSLRLSCAASGSTFYWYTMGWYRQAPGKERELVARISSSGSTNYADSVKGRFTISRDNAKNTVYFQMNSLKPEDTAVYYCNKDWIYRGYDYWGQGTQVTVSS | high polyreactivity
QVQLVESGGGLVQAGCSLRLSCAASGRNFRYYAMGLYRQAPGKERELVAAIDTGDTYYADSVKGRFTISRDNAKYTGYLQMNSLKPEDTAVYYSAAEGSTSLDDYWGQGTQVTVSS | high polyreactivity
QVQLVESGGGLVQAGGSLRLSCAASGFTFNKYAMGWYRQAPRKERELVAAISSSGGSTRYADSVKGRFTISRDNAKNTVYLQMISLKPEDTAVYYCAVYVTRDSGWWLYDYWGQGTQVTVSS | high polyreactivity
QVQLVESGGGLVQAGGSLRLSCAATGRIFWVYAMGWYRQAPGKERELVAAINTSVGRTHYADSVKGRFTISRDNAKNTVYLQMNSLKPEDTAVYYCAADVKRYGWEYGYWGQGTQVTVSS | low polyreactivity
QVQLVESGGGLVQAGGSLRLSCAASGSTFAWYAMGWYRQAPGKERELVAAISSGGRTYYADSVKGRFTISRDNAKNTVYLQMNSLKPEDTAVYYCNAVDWAYGMDYWGQGTQVTVSS | low polyreactivity
QVQLVESGGGLFQAGGSLRLSCAASGSTFGNNAMGWYRQAPGKERELVAAISRSGGNTYYADSVKGRFTISRDNAKNTVYLQMNSLKPEDTAVYYCAAGKLYAAGVYYLRRLYYWGQGTQVTVSS | high polyreactivity

Sequence | polyreactivity (PSR sort gate)
QVQLEESGLALVQAGGSLRLSCADSGRIFRKKAMGWYRQAPGKERELVAAISSSGSTYYADSVKGRFKISRDNAKNTVYLQMNSLKPVDTAVYYCAARYQYGNRRGRDYWGQGTQVTVSS | high polyreactivity
QVQLQESGGGLVQAGGTITLGYYMGWYRQAPGKEREFVAGIDTGAITYYADSVKGRFTNSRDNAKNTVYLQMNSLKPEDTAVYYCAAIQTHTYAHSYCGQGTQVTVSS | high polyreactivity
QVQLVESGGGLVQAGGSLRLSCAASGRIFYRNAMGRYRQAPGKERELVAAISSSGGRTYYADSVKGRFTISRDNAKITVYFQMNSLKPEDTAVYYCNRAYYLDSGYDSWGQGTQVTVSS | high polyreactivity
QVQHVESGGGLVQAGGSLRLSCAASGRTFRSYAMGWYRQAPGKEREFVATITRRGGSTYYADSVKGRFTISRDNAKNTVYLQMNSLKPEDTAVYYCNAVVSSQEYDYWGQGTQVTVSS | high polyreactivity
QVQLVESGGGLVQAGGSLRLSCAASGFIFGYNGMGWYRQAPGKERELVAGITYSDGSTYYADSVKGRFTISRDNAKNTVYLQMNSLKPEDTAVYYCAVEVGYTDSPYSYDYWGQGTQVTVSS | low polyreactivity
QVQLVESGGGLVQAGGSLRLSCAASGFTFRYYAMGWYRQAPGKERELVAAITSGDSTYYADSVKGRFTISRDKAKNTVYLQMNSLKPEDTAVYYCAAYSWLYEGYEYWGQGTQVTVSS | high polyreactivity
QVQRVESGGGLVQAGGSLRLSCAASGFTLLPNAMGWYRQAPGKETELVAAITASGGRTYYADSVKGRFTISRDNAKNTVYLQMNSLKPEDTAVYSCNADWQDDLAGYDVDYWGQGTQVTGSS | low polyreactivity
QVQLVESGGGLVQAGGSLRLSCAASGLTFRYYTMGWYRQAPGNERELVASSTSGGITYYADSVKGRFTISRDNAKNTVYLQMNSLKPEDPAVYYCAKGSYRTTYGALGVKYGYWGQGTQVTVSS | high polyreactivity
QVHLVESGGGLVQAGGSHRLSCAASGFIFKVNAMGWYRQAPGKERELVAAITGSGGSTYYADSVKGRFTISRDNAKNTVFLQMISLKPEDTAVYYCISLYDGYSTRLGFWGHGTQVTVSS | high polyreactivity
QVQLVESGGGLVQAGGILRLSSAASGRTILSYAMGWYRQAPGKERELVAAITRSGGGTFYADSVKGRFTLSRDNAKNTVYVQMNSLKPEDTAVYYCAARYYNYASPTRFKYNYWGQGTQVTVSS | high polyreactivity
QVQLVESGGGLVQAGGSLRLSCAASGSIFWRNAMGWYRQAPGKEREFVAAISARGGSTYYADSVKGRFTISRDNAKNTVYLQMNSLKPEDSAVYDCAASWGLGTYSDSTYWGGYYYWGQGTQVTVSS | low polyreactivity
QVQLVESGGGLFQAGGSLRLSCAASGSIFWSYDMGWYRQAPGKERELVATITSGDSTYYADSVKGRFTISRDNAKNTVYLQMNSLKPEDTAVYYCAAGTYYRRTYWHREYDYWGQGTQVTVSS | low polyreactivity
QVQLVESGGGLVQAGGSLRLICAASGSTFQLYAMGWYRQAPGKERDLFAAISGIGDSTYYADSVKGRFTISRDNAKITVYLQMNSLKPEDTAVYYCAREFSDGLSGKFDYWGQRTQVTVSS | low polyreactivity
QVQLVESGGGLVQAGGSLRLSCAASGGIFWRYAMGWYRPAPGKERELVAAISSRGGSTYYADSVKGRFTISRDNAKNTVYLQMNSLKPEDTAVYYCAADRRYAESGYYWGQGTQVTVSS | high polyreactivity
QVQLVESGGGLVQAGGSLRLSCAASGSILVPYAMGWYRQAPGKERELVAAISIRTGSTYYADSVKGRFTISRDNAKNTVYLQMNSLKPEDTAVYYCNAAHRKPYTGLNYWGQGTQVTVSS | high polyreactivity
QVLLVESGGGLVQAGGSLRLSCAASGRILYHYAMGWYRQAPGKERELVAAITRGGGTNYADSVKGRFTISRDNAKNTVYLQMNSLKPEDTAVYYCNADRFIVTRSRRGDYWGQGTQVTVSS | low polyreactivity
QVQLVESGGGLVQAGGSLRLSCAASGFIFVLYAKGWYRQAPGQERELVAAISRTGGSTYYADSVKGRFTISRDNAKNTVYLQMNSLKPEDTAVYYCAVSRSKTYDYWGQGTQVTVSS | high polyreactivity
QVQLVESGRGLVQAGGSLRLSCAASGYIFVYNAMGWYRQAPGKERELVAAITDGGGSTYADSVKGRFTISRDNAKNTVYLQMMSLNPEDTADYYCAARYSDTTWYVLYYYWGQGTQVTVSS | low polyreactivity
QVQLVESGGGLGQAGGSLRLSCAASGRTFYIYAMGWYRQAPGKERELVAANTWSTGGTYYADSVKGRFTISRDNAKNTVYLQMNSLKPEDTAVYYCAAGYDYKSTRHYYWGQGTQVTVSS | high polyreactivity
QVQLVESVVGLVQAGGSLPISCAASGSTFSANDMVWYSQPHGTERELVAAIDTGGTTYYADSVKGRFTISRDNAKNTVYLQMNSLKPEYTAVYYCNATIWYRDYGYWVQGTQVTVSS | low polyreactivity
QVQLVESGGGLVQAGGSLRLSCAASGYTLKWYTMGWYRQAPGKERELVATIRRGGGTYYADSVKGRFTISRDNAKNTVYLQMNSLKPEDTAVYYCNARDRRRTNLLDYWGQGTQVTVSS | low polyreactivity
